Article PMC9190012, “Heparin activation of protein Z-dependent protease inhibitor (ZPI) allosterically blocks protein Z activation through an extended heparin-binding site” (The Journal of Biological Chemistry, 2022)

B1: K125A/R128A: ZPI mutant of helix D residues (protein, UniProt Q9UK55 22-444, looked up, variant K125A R128A)
Protein Z-dependent protease …: LAPSPQSPETPAPQNQTSRVVQAPKEEEEDEQEASEEKASEEEKAWLMASRQQLAKETSNFGFSLLRKISMRHDGNMVFSPFGMSLAMTGLMLGATGPTETQIKRGLHLQALKPTKPGLLPSLFAGLAETLSRNLELGLTQGSFAFIHKDFDVKETFFNLSKRYFDTECVPMNFRNASQAKRLMNHYINKETRGKIPKLFDEINPETKLILVDYILFKGKWLTPFDPVFTEVDTFHLDKYKTIKVPMMYGAGKFASTFDKNFRCHVLKLPYQGNATMLVVLMEKMGDHLALEDYLTTDLVETWLRNMKTRNMEVFFPKFKLDQKYEMHELLRQMGIRRIFSPFADLSELSATGRNLQVSRVLQRTVIEVDERGTEAVAGILSEITAYSMPPVIKVDRPFHFMIYEETSGMLLFLGRVVNPTLL
B2: K284A: ZPI helix H site mutant (protein, UniProt Q9UK55 22-444, looked up, variant K284A)
Protein Z-dependent protease …: LAPSPQSPETPAPQNQTSRVVQAPKEEEEDEQEASEEKASEEEKAWLMASRQQLAKETSNFGFSLLRKISMRHDGNMVFSPFGMSLAMTGLMLGATGPTETQIKRGLHLQALKPTKPGLLPSLFKGLRETLSRNLELGLTQGSFAFIHKDFDVKETFFNLSKRYFDTECVPMNFRNASQAKRLMNHYINKETRGKIPKLFDEINPETKLILVDYILFKGKWLTPFDPVFTEVDTFHLDKYKTIKVPMMYGAGKFASTFDKNFRCHVLKLPYQGNATMLVVLMEAMGDHLALEDYLTTDLVETWLRNMKTRNMEVFFPKFKLDQKYEMHELLRQMGIRRIFSPFADLSELSATGRNLQVSRVLQRTVIEVDERGTEAVAGILSEITAYSMPPVIKVDRPFHFMIYEETSGMLLFLGRVVNPTLL
B3: K260A/R263A/R305A/K308A/R310A: ZPI helix H site quintuple mutant (protein, UniProt Q9UK55 22-444, looked up, variant K260A R263A R305A K308A R310A)
Protein Z-dependent protease …: LAPSPQSPETPAPQNQTSRVVQAPKEEEEDEQEASEEKASEEEKAWLMASRQQLAKETSNFGFSLLRKISMRHDGNMVFSPFGMSLAMTGLMLGATGPTETQIKRGLHLQALKPTKPGLLPSLFKGLRETLSRNLELGLTQGSFAFIHKDFDVKETFFNLSKRYFDTECVPMNFRNASQAKRLMNHYINKETRGKIPKLFDEINPETKLILVDYILFKGKWLTPFDPVFTEVDTFHLDKYKTIKVPMMYGAGKFASTFDANFACHVLKLPYQGNATMLVVLMEKMGDHLALEDYLTTDLVETWLANMATANMEVFFPKFKLDQKYEMHELLRQMGIRRIFSPFADLSELSATGRNLQVSRVLQRTVIEVDERGTEAVAGILSEITAYSMPPVIKVDRPFHFMIYEETSGMLLFLGRVVNPTLL
B4: K284A/R310A: ZPI helix H site double mutant (protein, UniProt Q9UK55 22-444, looked up, variant K284A R310A)
Protein Z-dependent protease …: LAPSPQSPETPAPQNQTSRVVQAPKEEEEDEQEASEEKASEEEKAWLMASRQQLAKETSNFGFSLLRKISMRHDGNMVFSPFGMSLAMTGLMLGATGPTETQIKRGLHLQALKPTKPGLLPSLFKGLRETLSRNLELGLTQGSFAFIHKDFDVKETFFNLSKRYFDTECVPMNFRNASQAKRLMNHYINKETRGKIPKLFDEINPETKLILVDYILFKGKWLTPFDPVFTEVDTFHLDKYKTIKVPMMYGAGKFASTFDKNFRCHVLKLPYQGNATMLVVLMEAMGDHLALEDYLTTDLVETWLRNMKTANMEVFFPKFKLDQKYEMHELLRQMGIRRIFSPFADLSELSATGRNLQVSRVLQRTVIEVDERGTEAVAGILSEITAYSMPPVIKVDRPFHFMIYEETSGMLLFLGRVVNPTLL

What was measured:
Assay type in all cases: biochemical
FXa [1] = molecular target: T1, FXa (Homo sapiens, UniProt P00742); assay: H50 heparin-accelerated ZPI–FXa reactions: kinetics and stoichiometry of inhibition; details: for SI / ka,app × SI / ka,app × SI relative to WT: 1 μM H50; for ka,app: 1 μM H50, 2.5 mM CaCl2, pH 7.4, 25 °C; for H50 rate enhancement: ratio of heparin-accelerated to unaccelerated ka,app × SI
T1 construct: purchased Enzyme Research Laboratories
T1 sequence (P00742 235-488 limits assumed): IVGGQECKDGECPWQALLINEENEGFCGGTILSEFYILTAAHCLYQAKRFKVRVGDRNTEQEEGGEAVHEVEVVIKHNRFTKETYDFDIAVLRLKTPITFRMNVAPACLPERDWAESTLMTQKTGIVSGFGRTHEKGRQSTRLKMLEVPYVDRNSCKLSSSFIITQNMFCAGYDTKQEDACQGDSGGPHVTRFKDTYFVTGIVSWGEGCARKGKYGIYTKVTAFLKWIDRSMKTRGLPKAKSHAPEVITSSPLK
T1 sequence (P00742 41-179 limits assumed): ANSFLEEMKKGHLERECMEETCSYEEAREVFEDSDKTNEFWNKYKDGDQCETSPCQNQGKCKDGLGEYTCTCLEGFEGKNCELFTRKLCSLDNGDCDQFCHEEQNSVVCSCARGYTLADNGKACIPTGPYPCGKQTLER
Method: Heparin accelerating effects on the kinetics of ZPI–FXa reactions were evaluated as a function of heparin concentration under pseudo–first-order conditions (i.e., with a large molar excess of inhibitor over protease) by incubating reaction mixtures of 100 μl containing 70 nM ZPI and ∼0.5 nM FXa in the absence or presence of varying levels of H50 ranging from 10^−9 to 10^−4 M in 20 mM Tris buffer (pH 7.4), 0.1 M NaCl, 0.1% PEG 8000, 0.1 mg/ml BSA, and 2.5 mM CaCl2 at 25 °C for reaction times of 2 to 5 min. Reactions were quenched by adding 1 ml of 50 μM Pefafluor FXa substrate (Centerchem, Inc) containing 50 μg/ml polybrene and 5 mM EDTA. The initial linear rate of substrate hydrolysis was monitored at an excitation wavelength of 380 nm and an emission wavelength of 440 nm. The observed pseudo–first-order rate constant for reactions (kobs) was calculated from the equation, kobs=In([vo-v∞]/[vt-v∞])/t
where vt and v∞ are the initial velocities of protease hydrolysis of the substrate after reaction with ZPI for the fixed reaction time and after reaching the reaction end point, respectively, vo is the velocity measured in control reactions without ZPI, and t is the fixed reaction time. The dependence of kobs on heparin concentration was computer fit by nonlinear least squares analysis by the ternary complex bridging model equation ([10]).
(§1) Apparent second-order rate constants for unaccelerated and H50-accelerated ZPI–FXa reactions were measured in the absence and presence of the optimal H50 concentration under pseudo–first-order conditions by analyzing full ZPI–FXa reaction progress curves over the ZPI concentration range of 10 to 900 nM with ∼0.5 nM FXa. Full reaction progress curves were also measured for ZPI–FXa reactions in the presence of PZ equimolar with ZPI, 25 μM lipid, and 5 mM CaCl2, as a function of the ZPI concentration in the range of 10 to 40 nM. Identical reaction mixtures were quenched at varying reaction times with substrate, and the time course of protease inactivation was measured from the decrease in initial rates of substrate hydrolysis. The first-order rate of decrease in protease activity with time was computer fit by a single exponential decay function with a nonzero end point and kobs obtained from the fitted exponential decay constant. Apparent second-order association rate constants (ka,app) were obtained from the slopes of linear plots of kobs versus the ZPI concentration according to the equation, kobs=kd+ka,app × [ZPI]0
(§2) In which kd represents the rate constant for ZPI–FXa complex dissociation and [ZPI]o is the total ZPI concentration. kd was fixed at the experimentally determined value of 10^−4 s^−1 for WT and ZPI mutants as described ([18]).
Fixed concentrations of FXa (50–100 nM FXa) were reacted with increasing concentrations of ZPI, ranging from a approximately threefold to sevenfold molar excess, in the absence of cofactors or in the presence of either 1 μM H50 or PZ equimolar with ZPI, 25 μM lipid, and 5 mM CaCl2, in kinetics buffer at 25 °C in reaction volumes of 50 μl. After allowing sufficient time to reach a reaction end point, based on measured second-order associate rate constants (∼5–30 min), remaining proteolytic activity was measured by reacting an aliquot (5–20 μl) of the reaction mixtures with 1 ml of 100 μM Spectrozyme fXa (American Diagnostica) containing 50 μg/ml Polybrene and 5 mM EDTA and monitoring the rate of absorbance change at 405 nm. The apparent SI was determined from the fitted abscissa intercept of a linear plot of residual protease activity against the molar ratio of inhibitor to protease ([18]). Because the ZPI–PZ complex dissociates to a small extent over the reaction time, apparent SIs depend on the time of incubation. To correct for such complex dissociation, apparent SIs were multiplied by the factor, exp (−kd × t), where kd is the measured complex dissociation rate constant of 10^−4 s^−1 and t the fixed reaction time. […]

FXa [2] = molecular target: T1, FXa; assay: Unaccelerated ZPI–FXa reactions: kinetics and stoichiometry of inhibition; details: for ka,app: absence of PZ, 2.5 mM CaCl2, pH 7.4, 25 °C
Method: as §1, §2
(§3) Fixed concentrations of FXa (50–100 nM FXa) were reacted with increasing concentrations of ZPI, ranging from a approximately threefold to sevenfold molar excess, in the absence of cofactors or in the presence of either 1 μM H50 or PZ equimolar with ZPI, 25 μM lipid, and 5 mM CaCl2, in kinetics buffer at 25 °C in reaction volumes of 50 μl. After allowing sufficient time to reach a reaction end point, based on measured second-order associate rate constants (∼5–30 min), remaining proteolytic activity was measured by reacting an aliquot (5–20 μl) of the reaction mixtures with 1 ml of 100 μM Spectrozyme fXa (American Diagnostica) containing 50 μg/ml Polybrene and 5 mM EDTA and monitoring the rate of absorbance change at 405 nm. The apparent SI was determined from the fitted abscissa intercept of a linear plot of residual protease activity against the molar ratio of inhibitor to protease ([18]). Because the ZPI–PZ complex dissociates to a small extent over the reaction time, apparent SIs depend on the time of incubation. To correct for such complex dissociation, apparent SIs were multiplied by the factor, exp (−kd × t), where kd is the measured complex dissociation rate constant of 10^−4 s^−1 and t the fixed reaction time. Simulations verified the validity of this correction for small extents of dissociation. Reported SIs are average values of at least two independent measurements at different reaction times.

FXa [3] = molecular target: T1, FXa; assay: PZ-accelerated ZPI–FXa reactions: kinetics and stoichiometry of inhibition; details: for SI / ka,app × SI / ka,app × SI relative to WT: PZ-accelerated; for ka,app: equimolar PZ, 25 μM phospholipid, 5 mM CaCl2, pH 7.4, 25 °C; for PZ enhancement: ratio of PZ-accelerated to unaccelerated ka,app × SI
Method: as §1, §2, §3

Molecule | SI (FXa [1]) [moles ZPI/mole FXa] | ka,app × SI (FXa [1]) | ka,app × SI relative to WT (FXa [1]) | ka,app (FXa [1]) | H50 rate enhancement (FXa [1]) [fold] | SI (FXa [2]) [moles ZPI/mole FXa] | ka,app × SI (FXa [2]) | ka,app × SI relative to WT (FXa [2]) | ka,app (FXa [2]) | SI (FXa [3]) [moles ZPI/mole FXa] | ka,app × SI (FXa [3]) | ka,app × SI relative to WT (FXa [3]) | ka,app (FXa [3]) | PZ enhancement (FXa [3])
B1 | 4.9 ± 0.2 | 5.6 ± 0.8 × 10^5 M^−1 s^−1 | (0.47) | 1.2 ± 0.1 × 10^5 M^−1 s^−1 | ~89 | 1.7 ± 0.1 | 6.3 ± 0.3 × 10^3 M^−1 s^−1 | (0.39) | 3.7 ± 0.1 × 10^3 M^−1 s^−1 | 5.6 ± 0.1 | 2.9 ± 0.2 × 10^7 M^−1 s^−1 | (0.66) | 5.2 ± 0.2 × 10^6 M^−1 s^−1 | 4603
B2 | 2.4 ± 0.1 | 9.2 ± 0.9 × 10^5 M^−1 s^−1 | (0.77) | 3.9 ± 0.2 × 10^5 M^−1 s^−1 |  | 2.3 ± 0.2 | 1.2 ± 0.2 × 10^4 M^−1 s^−1 | (0.75) | 5.0 ± 0.3 × 10^3 M^−1 s^−1 | 3.3 ± 0.1 | 2.0 ± 0.1 × 10^7 M^−1 s^−1 | (0.45) | 6.2 ± 0.1 × 10^6 M^−1 s^−1 | 1733
B3 | 2.9 ± 0.4 | 4.9 ± 0.7 × 10^4 M^−1 s^−1 | (0.04) | 1.7 ± 0.1 × 10^4 M^−1 s^−1 | 6.5 | 2.9 ± 0.3 | 7.5 ± 0.9 × 10^3 M^−1 s^−1 | (0.47) | 2.6 ± 0.1 × 10^3 M^−1 s^−1 | 4.5 ± 0.2 | 1.8 ± 0.1 × 10^7 M^−1 s^−1 | (0.41) | 3.9 ± 0.1 × 10^6 M^−1 s^−1 | 2400
B4 | 1.9 ± 0.1 | 3.7 ± 0.4 × 10^5 M^−1 s^−1 | (0.31) | 2.0 ± 0.1 × 10^5 M^−1 s^−1 | 59 | 1.9 ± 0.2 | 6.3 ± 1.3 × 10^3 M^−1 s^−1 | (0.39) | 3.3 ± 0.3 × 10^3 M^−1 s^−1 | 3.3 ± 0.1 | 2.1 ± 0.2 × 10^7 M^−1 s^−1 | (0.48) | 6.4 ± 0.4 × 10^6 M^−1 s^−1 | 3317
